Reference: the MegaScale stability set (Tsuboyama et al. 2023)

B1: EHEE_rd4_0086 (parent)
chain: EIHIRTNGEEQARKVYKMLAKRNYDVKIEQHNGQWVVTAS
B2: HHH_rd1_0493 (parent)
chain: RDEDEKEKIKEALKRGNEDKAKEIAKRANVSPEEYERLRKEAE

Variants of: B1
Experiment: folding stability dG (cDNA display proteolysis); higher = more stable
Conditions: PBS, room temperature

Variant	folding stability dG
EIHIRTNGEEQARKVYKMLAKRNYDVKIEQHNGQWWVTAS [V36W]	2.3 kcal/mol
EIHIRTNGEEQARKVYKMLAKRNYDVKIEQHNGQWQVTAS [V36Q]	1.07 kcal/mol
EIHIRTNGEEQARKVYKMLAKRNYDVKIEQHNGQWDVTAS [V36D]	0.384 kcal/mol
EIHIRTNGEEQARKVYKMLAKRNYDVKIEQHNGQWTVTAS [V36T]	1.39 kcal/mol
EIHIRTNGEEQARKVYKMLAKRNYDVKIEQHNGQWLVTAS [V36L]	1.78 kcal/mol
EIHIRTNGEEQARKVYKMLAKRNYDVKIEQHNGQWHVTAS [V36H]	1.56 kcal/mol
EIHIRTNGEEQARKVYKMLAKRNYDVKIEQHNGQWKVTAS [V36K]	0.658 kcal/mol
EIHIRTNGEEQARKVYKMLAKRNYDVKIEQHNGQWEVTAS [V36E]	0.934 kcal/mol
EIHIRTNGEEQARKVYKMLAKRNYDVKIEQHNGQWYVTAS [V36Y]	2.13 kcal/mol
EIHIRTNGEEQARKVYKMLAKRNYDVKIEQHNGQWFVTAS [V36F]	2.06 kcal/mol
EIHIRTNGEEQARKVYKMLAKRNYDVKIEQHNGQWSVTAS [V36S]	1.23 kcal/mol
EIHIRTNGEEQARKVYKMLAKRNYDVKIEQHNGQWNVTAS [V36N]	0.466 kcal/mol
EIHIRTNGEEQARKVYKMLAKRNYDVKIEQHNGQWMVTAS [V36M]	1.58 kcal/mol
EIHIRTNGEEQARKVYKMLAKRNYDVKIEQHNGQWIVTAS [V36I]	2.15 kcal/mol
EIHIRTNGEEQARKVYKMLAKRNYDVKIEQHNGQWAVTAS [V36A]	0.857 kcal/mol
EIHIRTNGEEQARKVYKMLAKRNYDVKIEQHNGQWGVTAS [V36G]	0.463 kcal/mol
EIHIRTNGEEQARKVYKMLAKRNYDVKIEQHNGQWRVTAS [V36R]	1.07 kcal/mol
EIHIRTNGEEQARKVYKMLAKRNYDVKIEQHNGQWVVTVS [A39V]	2.51 kcal/mol
EIHIRTNGEEQARKVYKMLAKRNYDVKIEQHNGQWVVTQS [A39Q]	0.463 kcal/mol
EIHIRTNGEEQARKVYKMLAKRNYDVKIEQHNGQWVVTTS [A39T]	1.41 kcal/mol
EIHIRTNGEEQARKVYKMLAKRNYDVKIEQHNGQWVVTWS [A39W]	2.2 kcal/mol
EIHIRTNGEEQARKVYKMLAKRNYDVKIEQHNGQWVVTMS [A39M]	1.98 kcal/mol
EIHIRTNGEEQARKVYKMLAKRNYDVKIEQHNGQWVVTGS [A39G]	1.44 kcal/mol
EIHIRTNGEEQARKVYKMLAKRNYDVKIEQHNGQWVVTPS [A39P]	0.297 kcal/mol
EIHIRTNGEEQARKVYKMLAKRNYDVKIEQHNGQWVVTKS [A39K]	0.724 kcal/mol

Variant	folding stability dG
EIHIRTNGEEQARKVYKMLAKRNYDVKIEQHNGQWVVTNS [A39N]	0.642 kcal/mol
EIHIRTNGEEQARKVYKMLAKRNYDVKIEQHNGQWVVTYS [A39Y]	2.29 kcal/mol
EIHIRTNGEEQARKVYKMLAKRNYDVKIEQHNGQWVVTLS [A39L]	2.36 kcal/mol
EIHIRTNGEEQARKVYKMLAKRNYDVKIEQHNGQWVVTSS [A39S]	1.21 kcal/mol
EIHIRTNGEEQARKVYKMLAKRNYDVKIEQHNGQWVVTFS [A39F]	2.32 kcal/mol
EIHIRTNGEEQARKVYKMLAKRNYDVKIEQHNGQWVVTES [A39E]	0.112 kcal/mol
EIHIRTNGEEQARKVYKMLAKRNYDVKIEQHNGQWVVTIS [A39I]	2.85 kcal/mol
EIHIRTNGEEQARKVYKMLAKRNYDVKIEQHNGQWVVTDS [A39D]	0.179 kcal/mol
EIHIRTNGEEQARKVYKMLAKRNYDVKIEQHNGQWVVTHS [A39H]	1.11 kcal/mol
EIHIRTNGEEQARKVYKMLAKRNYDVKIEQHNGQWVVTRS [A39R]	0.961 kcal/mol
EIHIRTNGEEQARKVYKMLAKRNYDVKIEQHNGQWVFTAS [V37F]	-0.019 kcal/mol
EIHIRTNGEEQARKVYKMLAKRNYDVKIEQHNGQWVLTAS [V37L]	0.844 kcal/mol
EIHIRTNGEEQARKVYKMLAKRNYDVKIEQHNGQWVWTAS [V37W]	-0.025 kcal/mol
EIHIRTNGEEQARKVYKMLAKRNYDVKIEQHNGQWVITAS [V37I]	1.79 kcal/mol
EIHIRTNGEEQARKVYKMLAKRNYDVKIEQHNGQWVMTAS [V37M]	0.044 kcal/mol
EIHIRTNGEEQARKVYKMLAKRNYDVKIEQHNGQIVVTAS [W35I]	-0.153 kcal/mol
EIHIRTNGEEQARKVYKMLAKRNYDVKIEQHNGQVVVTAS [W35V]	-0.525 kcal/mol
EIHIRTNGEEQARKVYKMLAKRNYDVKIEQHNGQFVVTAS [W35F]	1.01 kcal/mol
EIHIRTNGEEQARKVYKMLAKRNYDVKIEQHNGQYVVTAS [W35Y]	0.915 kcal/mol
EIHIRTNGEEQARKVYKMLAKRNYDVKIEQHNGQLVVTAS [W35L]	-0.221 kcal/mol
EIHIRTNGEEQARKVYKMLAKRNYDVKIEQHNGQTVVTAS [W35T]	-0.759 kcal/mol
EIHIRTNGEEQARKVYKMLAKRNYDVKIEQHNGQMVVTAS [W35M]	-0.847 kcal/mol
EIHIRTNGEEQARKVYKMLAKRNYDVKIEQHNGTWVVTAS [Q34T]	1.95 kcal/mol
EIHIRTNGEEQARKVYKMLAKRNYDVKIEQHNGRWVVTAS [Q34R]	1.59 kcal/mol
EIHIRTNGEEQARKVYKMLAKRNYDVKIEQHNGVWVVTAS [Q34V]	2.27 kcal/mol

Variant	folding stability dG
EIHIRTNGEEQARKVYKMLAKRNYDVKIEQHNGKWVVTAS [Q34K]	1.61 kcal/mol
EIHIRTNGEEQARKVYKMLAKRNYDVKIEQHNGFWVVTAS [Q34F]	2.5 kcal/mol
EIHIRTNGEEQARKVYKMLAKRNYDVKIEQHNGLWVVTAS [Q34L]	1.86 kcal/mol
EIHIRTNGEEQARKVYKMLAKRNYDVKIEQHNGYWVVTAS [Q34Y]	2.55 kcal/mol
EIHIRTNGEEQARKVYKMLAKRNYDVKIEQHNGIWVVTAS [Q34I]	2.27 kcal/mol
EIHIRTNGEEQARKVYKMLAKRNYDVKIEQHNGSWVVTAS [Q34S]	1.67 kcal/mol
EIHIRTNGEEQARKVYKMLAKRNYDVKIEQHNGHWVVTAS [Q34H]	2.04 kcal/mol
EIHIRTNGEEQARKVYKMLAKRNYDVKIEQHNGPWVVTAS [Q34P]	-0.941 kcal/mol
EIHIRTNGEEQARKVYKMLAKRNYDVKIEQHNGGWVVTAS [Q34G]	1.58 kcal/mol
EIHIRTNGEEQARKVYKMLAKRNYDVKIEQHNGWWVVTAS [Q34W]	2.31 kcal/mol
EIHIRTNGEEQARKVYKMLAKRNYDVKIEQHNGNWVVTAS [Q34N]	1.52 kcal/mol
EIHIRTNGEEQARKVYKMLAKRNYDVKIEQHNGMWVVTAS [Q34M]	2.09 kcal/mol
EIHIRTNGEEQARKVYKMLAKRNYDVKIEQHNGEWVVTAS [Q34E]	1.87 kcal/mol
EIHIRTNGEEQARKVYKMLAKRNYDVKIEQHNGQWVVTAG [S40G]	1.33 kcal/mol
EIHIRTNGEEQARKVYKMLAKRNYDVKIEQHNGQWVVTAT [S40T]	2.08 kcal/mol
EIHIRTNGEEQARKVYKMLAKRNYDVKIEQHNGQWVVTAW [S40W]	2.2 kcal/mol
EIHIRTNGEEQARKVYKMLAKRNYDVKIEQHNGQWVVTAY [S40Y]	1.96 kcal/mol
EIHIRTNGEEQARKVYKMLAKRNYDVKIEQHNGQWVVTAQ [S40Q]	1.57 kcal/mol
EIHIRTNGEEQARKVYKMLAKRNYDVKIEQHNGQWVVTAI [S40I]	2.05 kcal/mol
EIHIRTNGEEQARKVYKMLAKRNYDVKIEQHNGQWVVTAN [S40N]	1.65 kcal/mol
EIHIRTNGEEQARKVYKMLAKRNYDVKIEQHNGQWVVTAH [S40H]	1.77 kcal/mol
EIHIRTNGEEQARKVYKMLAKRNYDVKIEQHNGQWVVTAL [S40L]	1.78 kcal/mol
EIHIRTNGEEQARKVYKMLAKRNYDVKIEQHNGQWVVTAA [S40A]	1.54 kcal/mol
EIHIRTNGEEQARKVYKMLAKRNYDVKIEQHNGQWVVTAD [S40D]	0.806 kcal/mol
EIHIRTNGEEQARKVYKMLAKRNYDVKIEQHNGQWVVTAK [S40K]	2.19 kcal/mol

Variant	folding stability dG
EIHIRTNGEEQARKVYKMLAKRNYDVKIEQHNGQWVVTAE [S40E]	1.02 kcal/mol
EIHIRTNGEEQARKVYKMLAKRNYDVKIEQHNGQWVVTAM [S40M]	1.81 kcal/mol
EIHIRTNGEEQARKVYKMLAKRNYDVKIEQHNGQWVVTAV [S40V]	1.98 kcal/mol
EIHIRTNGEEQARKVYKMLAKRNYDVKIEQHNGQWVVTAR [S40R]	2.25 kcal/mol
EIHIRTNGEEQARKVYKMLAKRNYDVKIEQHNGQWVVTAF [S40F]	2.04 kcal/mol
EIHIRTNGEEQARKVYKMLAKRNYDVKIEQHNGQWVVTAP [S40P]	1.16 kcal/mol
EIHIRTNGEEQARKVYKMLAKRNYDVKIEQHNGQWVVHAS [T38H]	1.64 kcal/mol
EIHIRTNGEEQARKVYKMLAKRNYDVKIEQHNGQWVVNAS [T38N]	0.617 kcal/mol
EIHIRTNGEEQARKVYKMLAKRNYDVKIEQHNGQWVVFAS [T38F]	1.72 kcal/mol
EIHIRTNGEEQARKVYKMLAKRNYDVKIEQHNGQWVVWAS [T38W]	1.72 kcal/mol
EIHIRTNGEEQARKVYKMLAKRNYDVKIEQHNGQWVVEAS [T38E]	0.543 kcal/mol
EIHIRTNGEEQARKVYKMLAKRNYDVKIEQHNGQWVVQAS [T38Q]	0.832 kcal/mol
EIHIRTNGEEQARKVYKMLAKRNYDVKIEQHNGQWVVRAS [T38R]	1.78 kcal/mol
EIHIRTNGEEQARKVYKMLAKRNYDVKIEQHNGQWVVVAS [T38V]	2.25 kcal/mol
EIHIRTNGEEQARKVYKMLAKRNYDVKIEQHNGQWVVIAS [T38I]	2.59 kcal/mol
EIHIRTNGEEQARKVYKMLAKRNYDVKIEQHNGQWVVGAS [T38G]	0.134 kcal/mol
EIHIRTNGEEQARKVYKMLAKRNYDVKIEQHNGQWVVMAS [T38M]	1.67 kcal/mol
EIHIRTNGEEQARKVYKMLAKRNYDVKIEQHNGQWVVDAS [T38D]	0.023 kcal/mol
EIHIRTNGEEQARKVYKMLAKRNYDVKIEQHNGQWVVSAS [T38S]	1.51 kcal/mol
EIHIRTNGEEQARKVYKMLAKRNYDVKIEQHNGQWVVAAS [T38A]	0.835 kcal/mol
EIHIRTNGEEQARKVYKMLAKRNYDVKIEQHNGQWVVKAS [T38K]	1.71 kcal/mol
EIHIRTNGEEQARKVYKMLAKRNYDVKIEQHNGQWVVLAS [T38L]	1.75 kcal/mol
EIHIRTNGEEQARKVYKMLAKRNYDVKIEQHNGQWVVYAS [T38Y]	1.75 kcal/mol

Variants of: B2
Experiment: as above
Conditions: PBS, room temperature

Variant	folding stability dG
RAEDEKEKIKEALKRGNEDKAKEIAKRANVSPEEYERLRKEAE [D2A]	2.87 kcal/mol
RCEDEKEKIKEALKRGNEDKAKEIAKRANVSPEEYERLRKEAE [D2C]	2.94 kcal/mol
RIEDEKEKIKEALKRGNEDKAKEIAKRANVSPEEYERLRKEAE [D2I]	3.21 kcal/mol
RFEDEKEKIKEALKRGNEDKAKEIAKRANVSPEEYERLRKEAE [D2F]	3.22 kcal/mol
RHEDEKEKIKEALKRGNEDKAKEIAKRANVSPEEYERLRKEAE [D2H]	3.05 kcal/mol
REEDEKEKIKEALKRGNEDKAKEIAKRANVSPEEYERLRKEAE [D2E]	3.11 kcal/mol
RGEDEKEKIKEALKRGNEDKAKEIAKRANVSPEEYERLRKEAE [D2G]	2.95 kcal/mol
CDEDEKEKIKEALKRGNEDKAKEIAKRANVSPEEYERLRKEAE [R1C]	2.64 kcal/mol
ADEDEKEKIKEALKRGNEDKAKEIAKRANVSPEEYERLRKEAE [R1A]	3.23 kcal/mol
DDEDEKEKIKEALKRGNEDKAKEIAKRANVSPEEYERLRKEAE [R1D]	3.13 kcal/mol
NDEDEKEKIKEALKRGNEDKAKEIAKRANVSPEEYERLRKEAE [R1N]	3.16 kcal/mol
GDEDEKEKIKEALKRGNEDKAKEIAKRANVSPEEYERLRKEAE [R1G]	3.1 kcal/mol
VDEDEKEKIKEALKRGNEDKAKEIAKRANVSPEEYERLRKEAE [R1V]	3.22 kcal/mol
PDEDEKEKIKEALKRGNEDKAKEIAKRANVSPEEYERLRKEAE [R1P]	3.19 kcal/mol
KDEDEKEKIKEALKRGNEDKAKEIAKRANVSPEEYERLRKEAE [R1K]	3.12 kcal/mol
EDEDEKEKIKEALKRGNEDKAKEIAKRANVSPEEYERLRKEAE [R1E]	3.02 kcal/mol
QDEDEKEKIKEALKRGNEDKAKEIAKRANVSPEEYERLRKEAE [R1Q]	3.1 kcal/mol
SDEDEKEKIKEALKRGNEDKAKEIAKRANVSPEEYERLRKEAE [R1S]	3.15 kcal/mol
MDEDEKEKIKEALKRGNEDKAKEIAKRANVSPEEYERLRKEAE [R1M]	3.03 kcal/mol
WDEDEKEKIKEALKRGNEDKAKEIAKRANVSPEEYERLRKEAE [R1W]	3.04 kcal/mol
YDEDEKEKIKEALKRGNEDKAKEIAKRANVSPEEYERLRKEAE [R1Y]	3.11 kcal/mol
FDEDEKEKIKEALKRGNEDKAKEIAKRANVSPEEYERLRKEAE [R1F]	3.01 kcal/mol
LDEDEKEKIKEALKRGNEDKAKEIAKRANVSPEEYERLRKEAE [R1L]	3.08 kcal/mol
IDEDEKEKIKEALKRGNEDKAKEIAKRANVSPEEYERLRKEAE [R1I]	3.2 kcal/mol
TDEDEKEKIKEALKRGNEDKAKEIAKRANVSPEEYERLRKEAE [R1T]	3.28 kcal/mol
HDEDEKEKIKEALKRGNEDKAKEIAKRANVSPEEYERLRKEAE [R1H]	3.11 kcal/mol
